Laboratory results from the DeepSol protein solubility set.

Assay: soluble on expression in E. coli; label from the status in PepcDB or PDB records

Row | Sequence | soluble on expression in E. coli
1 | MKSMTGFGKKTIQNENYQLDIEVKSVNQRFLDIQLRMPKELNAYELVIRQVIKRTLKRGRVEVYVNLQKIGNNQKEVRVQWDLIDQLLTSVDQHLKEKYPEATFDAGDTVNHLLKQNDFVEIVEAEIVDQTFEPFLVQAFEAAIASLDQSRVQEGTQIKQVLLDYVAVLTQSIQELQAFVGVFEQEYRQRFEAKLNEWLGSQVDETRLLTEMAILLEKGDIHEELDRLDIHIDKLHQLLDETEPVGRELDFLIQEMNREVNTIGSKSSPIEIKNSVVQMKTTLEKIREQIQNVE | not soluble
2 | MDLVFRPERYPFLTQDLPGVGGEIRVEPEDFQVEEVPAYLPKGEGEHLYLLLEKEGRTTREVLEFLRDEVGVPEKEIGVAGLKDKRAKTRQWFSIPRKYEDALCLLENLQGVRLLAADLHTNKLRTGHLKGNRFHILIRRPKGGVAEAEAVLKRLAEKGVPNYYGPQRFGLGGLNPVRGYKLVKEGKGRGSPWLKRFLIGSLQSLLFNDWVALRMALGLYDRVVPGDWAKKHATGGEFLVEDPGEAERALRLEISATGPLFGKKYPEAQGEARAIEDEVLARYGLKREEFRARRGARRPIRVPLAEWKVEEAPEGLWLSFFLPKGSYATSLLREVMKVEALDHLEAEPAPEDAEGL | soluble
3 | MDVTRQIELAHRYMKDFHKSDYSGHDVAHVERVTSLAQTISKCEQQGEYLIITLSALLHDVIDDKLTNKANALDRLKTFLKNIRVSSDQQQKIIYIIQHLSYRNGQNNHVDLPIEGQIVRDADRLDAIGAIGIARAFQFSGHFNEPMWTESPHSDIPNIETITNLEPSAIRHFYDKLLKLKDLMHTETGRKLARERHAFMEQFLNQFYKEWHILEHHHHHH | soluble
4 | MADESETAVKPPAPPLPQMMEGNGNGHEHCSDCENEEDNSYNRGGLSPANDTGAKKKKKKQKKKKEKGSETDSAQDQPVKMNSLPAERIQEIQKAIELFSVGQGPAKTMEEASKRSYQFWDTQPVPKLGEVVNTHGPVEPDKDNIRQEPYTLPQGFTWDALDLGDRGVLKELYTLLNENYVEDDDNMFRFDYSPEFLLWALRPPGWLPQWHCGVRVVSSRKLVGFISAIPANIHIYDTEKKMVEINFLCVHKKLRSKRVAPVLIREITRRVHLEGIFQAVYTAGVVLPKPVGTCRYWHRSLNPRKLIEVKFSHLSRNMTMQRTMKLYRLPETPKTAGLRPMETKDIPVVHQLLTRYLKQFHLTPVMSQEEVEHWFYPQENIIDTFVVENANGEVTDFLSFYTLPSTIMNHPTHKSLKAAYSFYNVHTQTPLLDLMSDALVLAKMKGFDVFNALDLMENKTFLEKLKFGIGDGNLQYYLYNWKCPSMGAEKVGIVLQ | soluble
5 | MNPPDISVLIVSFNTRDLLRRCLASLRDQAGGTGIETIVVDNASRDGSADMVEAEFPDVRLIRSPVNLGFGNANNLAFTQSRGRYLVLLNSDACLAPGLLDAASKRMDACPDVGMAGGRLVGPEGGWQPSARMFPSLLNEFLVLSGLAHRYPKSRLFGRFDRTWADPSEEAGVDWVPGAFAILRRDLIDRIGFFDPRFFLYYEEVDLCRRIRAAGCKIMYWPELVITHLGGESAKTLSDMEFSSHASQLTLWRMRSQALYYRKWHGLALAWSAKTLEQLWHWLRALRHRRSAPAKAHDSEALIRLWNRAWKETEGGRVSPPQPWLEHHHHHH | not soluble
6 | PTPPNWNMTSSGLEVKSPGDGILTPGENMELVAAVCSACHSLHMVTQQGLSRQRWDESLDWMIEEQGMEDLSGDDREAILEYLSTYYGG | not soluble
7 | MKKTAIALLAWFVSSASLAATPWQKITHPVPGAAQSIGSFANGCIIGADTLPVQSDNYQVMRTDQRRYFGHPDLVMFIQRLSHQAQQRGLGTVLIGDMGMPAGGRFNGGHASHQTGLDVDIFLQLPKTRWSQAQLLRPQALDLVSRDGKHVVPSRWSSDIASLIKLAAQDNDVTRIFVNPAIKQQLCLDAGNDRDWLRKVRPWFQHRAHMHVRLRCPADSLECEDQPLPPPGDGCGAELQSWFEPPKPGTTKPEKKTPPPLPPSCQALLDEHVL | not soluble
8 | MGSDKIHHHHHHMKLVEITREEIRGDLVGLVPVGSIEQHGPHLPMGTDGIISEYIASKAEEKLKDITLLFPTIYYGVSLEHKGFPFVSLSFQTAISFFTDLLESVFNDLGLRRIIIVNGHGGNSYFLPLVQREFNMKHSDAKVIVFNTFGEEEKILFNVNDLHAGTIETSKIWAIGKSLVRVNKIDEIKNYEVRDGVFIYYSSREANQFGVLNDGKPIRVNEEYGKKILRDLVDKLIWTILNFKV | not soluble
9 | MGSDKIHHHHHHMPRGDIGIDLGTASIIVYKRGEGIVLHEPSVVAISEKTGEIVAIGEEAKKMLGKTPEGLKAIRPMKDGVIADYRMIEAIIRNFLKKIIGRFSFVKPSLIIGVPTKITEVEKRAVFEAGLNAGARRVHIVSEPIAAAIGAGIDVMASEGNMVVDIGGGTTDIAVISLGGTVVGESVRMAGDAMDEAIVKFIRKKYGLIIGESTAEEIKKRIGKTHPAFENYEIEIKGRDVVTGLPRTDRVSSEDVREAIEPIIFALLTKLKNVLERTPPELSADIINNGIRLTGGGALLRGLDRTIYDEIHVKTIVADDPITCVARGTGILLEDEKLLKTVCETYSR | not soluble
10 | MSLENKFARTVLGDIPVEKLGITDCHDHFIKNGGPEVEEHIDFLMLNVDASIKEFKEFIDRGGSTIVTMDPPNVGRDVLKTLEIANAVKNLGGNVIMSTGFHKAKFYDKYSSWLAVVPTEEIVKMCVAEIEEGMDEYNYNGPVVKRSKAKAGIIKAGTGYGAIDRLELKALEVAARTSILTGCPILVHTQLGTMALEVAKHLIGFGANPDKIQISHLNKNPDKYYYEKVIKETGVTLCFDGPDRVKYYPDSLLAENIKYLVDKGLQKHITLSLDAGRILYQRNYGLTKGKQTFGLAYLFDRFLPLLKQVGVSKEAIFDILVNNPKRVLAFDEKRNFDPLKVSKEVLELKKELNLNEGHHHHHH | soluble
11 | MSLQKNNLHIIIAEDDFDDADMICETFNQNPNFGKVSLVANGEELLNYLKNASNESPDVILTDINMPIVDGIEALQQILNNSDLKNIPCFVYSTSINPSYKEKCDDLGVKAYLIKPYSFEAFAEIPKTILSIIQAEGHHHHHH | soluble
12 | MISAGIDPGTGSYDVVAIEDGKVVFRKNIPTEEVRASPDVIVEVIEESGAEVAAGLSGYGLPVKRFSELDEVDLLLMTLNFDSERAIGLRNIIKAVKERNVNLYTVPAVIHLPTVPPWRKMNRIDIGTADKLCSAVLAVAKLSEEEELTKLNFILAEVGEGFNAFIAVRNGRIVDGMGGTTSFPGYSSLGAMDAELAYIIGEFPKKLIFSGGVKSFASEWKVNENEVTNILSEFVLKGIRAMEVSTDADFYMLSGRFAPDVLRKLRGEGKEVRLLGGFGRGKQSAQGAAIIANAIAGGEYREIVDYMRIFEAKGTLLDYITSDIMEYVRRGLKRRGD | not soluble
13 | MAQVLSLENVTLAVEKENSKQAIVKHVSFFINEGEIVALVGESGSGKSVTAQSIIGLNQESIQFDDGNISFESKDLTNLQESEWNQIRGKDISFIFQDPLSSLNPTMKVGRQITEVILQHEKKSKKEAKEIAINLLNDLGIHEAEKRFEQYPHQLSGGMRQRICLAIAFACHPKLVIADEPTTALDVTIQKQIMGLLKERKEKQNTSILLITHDLALVREVADRVVVMYGGRIVEKGTIQEVIGSPKHPYTKSLLQAIPNMDDAEKVLRAIEGTTPSIETLNSFGCPFVNRCPVAIQECIHRFPERTTYSAEHSSHCWQHVLEHDRAKSKEKVNVS | not soluble
14 | MAIPKLQAYALPESHDIPQNKVDWAFEPQRAALLIHDMQDYFVSFWGENCPMMEQVIANIAALRDYCKQHNIPVYYTAQPKEQSDEDRALLNDMWGPGLTRSPEQQKVVDRLTPDADDTVLVKWRYSAFHRSPLEQMLKESGRNQLIITGVYAHIGCMTTATDAFMRDIKPFMVADALADFSRDEHLMSLKYVAGRSGRVVMTEELLPAPIPASKAALREVILPLLDESDEPFDDDNLIDYGLDSVRMMALAARWRKVHGDIDFVMLAKNPTIDAWWKLLSREVK | not soluble
15 | MSDPKQKSDDLPEQVEQPEQGGGNDGQEEDVQMAEVSEQELERVRTLLHRDWMYSFTPERVRRYHLNRSDYLNEEIRHSQRAIRNALLGYKHASNSRKTCRTDLLDTTWILENLELVGRQLPRESSSQGNPNQESVQELHRQICQLFEDDALAVCERGHNQEVALDLASQVIATHMRTIREFQEEYFKVTGKKHELKKLEDNAYGVLLTPSPKRMPKNFQRRRSDGDDDDDGPGNWGNLNPVAPV | soluble
